In article PMC2996326, “LaeA Control of Velvet Family Regulatory Proteins for Light-Dependent Development and Fungal Cell-Type Specificity” (PLoS Genetics, 2010):

Target: the molecule itself
Assay: not stated; VelB heterologously expressed in Escherichia coli; data not shown

B1: VelB expressed in Escherichia coli (natural protein, Aspergillus nidulans, UniProt C8VTS4 1-369, looked up)
chain: MYAVEDRAHSGHHPPPLSMDRIPPPSTMYPSSAGPSAMVSPAGQPEPESLSTVHDGRIWSLQVVQQPIRARMCGFGDKDRRPITPPPCIRLIVKDAQTQKEVDINSLDSSFYVVMADLWNADGTHEVNLVKHSATSPSISTAMSSSYPPPPHPTSSDYPASYQTNPYGQPVGQPVGQPVGYAGVGNYYGGSTQLQYQNAYPNPQAQYYQPMYGGMAQPQMPAAQPVTPGPGGMFTRNLIGCLSASAYRLYDTEDKIGVWFVLQDLSVRTEGIFRLKFSFVNVGKSVSDLPQSDIAEVINKGTAPILASTFSEPFQVFSAKKFPGVIESTPLSKVFANQGIKIPIRKDGVKGQGSRGRHSDEDDGLDNEY
notes: VelB of Aspergillus nidulans, heterologously expressed; construct not described; neither the construct, its tags nor its purification are described; source: heterologous expression in Escherichia coli
stoichiometry N: 2
